Data from US20060239990A1 (published 2006).
One block for each binder: values may come before it.

Assays:
RelA (p65) in 293 cells = target: T1, RelA (p65) in 293 cells (UniProt Q04206 1-551); experiment: immunoprecipitation with anti-HA antibody from transfected 293 cells, immunoblot for p65
T1 construct: also called endogenous p65
Excerpt: (§1) To map IκB-α domains that interacted with PRMT2, 293 cells were transfected with HA-tagged PRMT2 (FIG. 5C) and His-tagged derivatives of the indicated IκB-α expression vectors (FIG. 5B) as indicated. 24 hrs later cells were harvested in cell lysis buffer and cell lysates were immunoprecipitated with agarose-conjugated antibody to His (IκB-α) (FIG. 5D, lanes 1-4) and HA (PRMT2) (FIG. 5D, lanes 5-6), fractionated by SDS-PAGE and analyzed by immunoblotting with antibody to HA to detect PRMT2 ((FIG. 5D lanes 1, 2 and lanes 5, 6) and His (FIG. 5D, lanes 3, 4). To map the region of PRMT2 that interacted with endogenous IκB-α and p65, 293 cells were transfected with HA-tagged PRMT2 (FIG. 5C) derivatives as indicated. Cells were harvested 24 hrs after transfection in cell lysis buffer, immunoprecipitated with agarose-conjugated antibody to HA to detect PRMT2 and derivatives (FIG. 5E, lanes 7-15), fractionated by SDS-PAGE and analyzed by immunoblotting with antibody to p65 (FIG. 5E, lanes 7-9), IκB-α (FIG. 5E, lanes 10-12) or HA (FIG. 5E, lanes 13-15).
A polyclonal antibody to recombinant PRMT2 was used to examine the association between endogenous PRMT2 and IκB-α in vivo. […] The domain of IκB-α required for association with PRMT2 was mapped using in vivo immunoprecipitation assays where HA-tagged PRMT2 was coexpressed with truncation mutants of His-tagged IκB-α (FIG. 5B) in 293 cells. The ankyrin domain was both necessary and sufficient for this association (FIG. 5D, lanes 1 and 2). The domain of PRMT2 that interacted with endogenous IκB-α was mapped by immunoprecipitation following expression HA-tagged PRMT2 truncation mutants (FIG. 5C). […] When the ratios of PRMT2 or PRMT2-A binding to IκB-α were compared, both interacted with IκB-α with similar affinity.

[1] = target: T2, IκB-α, endogenous in 293 cells (human, UniProt P25963 1-317); experiment: immunoprecipitation with anti-HA antibody from transfected 293 cells, immunoblot for endogenous IκB-α
T2 construct: also called endogenous IκB-α
T2 sequence (looked up): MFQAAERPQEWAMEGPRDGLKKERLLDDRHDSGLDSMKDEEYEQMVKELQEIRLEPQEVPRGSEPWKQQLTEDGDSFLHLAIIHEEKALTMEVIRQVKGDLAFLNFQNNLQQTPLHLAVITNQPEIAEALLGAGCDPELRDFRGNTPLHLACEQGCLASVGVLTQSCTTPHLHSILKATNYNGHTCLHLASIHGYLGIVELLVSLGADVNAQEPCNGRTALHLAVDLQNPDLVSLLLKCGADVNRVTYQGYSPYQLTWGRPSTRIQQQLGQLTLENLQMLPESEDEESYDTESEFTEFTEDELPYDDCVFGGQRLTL
Excerpt: as §1
(§2) A polyclonal antibody to recombinant PRMT2 was used to examine the association between endogenous PRMT2 and IκB-α in vivo. […] The domain of IκB-α required for association with PRMT2 was mapped using in vivo immunoprecipitation assays where HA-tagged PRMT2 was coexpressed with truncation mutants of His-tagged IκB-α (FIG. 5B) in 293 cells. […]

[2] = target: T2, IκB-α, endogenous in 293 cells; experiment: immunoprecipitation with anti-HA antibody from transfected 293 cells, immunoblot for IκB-α
Excerpt: as §1, §2

T1 sequence (Q04206 whole entry): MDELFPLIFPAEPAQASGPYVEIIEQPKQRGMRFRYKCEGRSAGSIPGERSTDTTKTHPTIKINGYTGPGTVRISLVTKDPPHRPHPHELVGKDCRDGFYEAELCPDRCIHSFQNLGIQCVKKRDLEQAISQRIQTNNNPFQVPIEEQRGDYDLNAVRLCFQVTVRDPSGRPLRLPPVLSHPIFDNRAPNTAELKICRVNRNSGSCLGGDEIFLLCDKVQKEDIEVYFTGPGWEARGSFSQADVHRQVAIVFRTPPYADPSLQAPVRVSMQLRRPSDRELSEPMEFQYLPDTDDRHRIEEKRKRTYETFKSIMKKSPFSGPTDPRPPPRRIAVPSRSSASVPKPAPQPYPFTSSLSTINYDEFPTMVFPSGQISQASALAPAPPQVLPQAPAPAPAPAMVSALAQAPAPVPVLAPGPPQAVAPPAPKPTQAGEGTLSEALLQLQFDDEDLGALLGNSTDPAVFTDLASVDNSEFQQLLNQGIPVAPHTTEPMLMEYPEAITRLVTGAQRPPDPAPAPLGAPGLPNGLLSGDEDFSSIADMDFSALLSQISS

binding result (RelA (p65) in 293 cells): no binding | binding result [1]: binds
B1: HA-tagged PRMT2-A (alternative splice variant, first 218 amino acids of PRMT2) (enzyme)
chain: MATSGDCPRSESQGEEPAECSEAGLLQEGVQPEEFVAIADYAATDETQLSFLRGEKILILRQTTADWWWGERAGCCGYIPANHVGKHVDEYDPEDTWQDEEYFGSYGTLKLHLEMLADQPRTTKYHSVILQNKESLTDKVILDVGCGTGIISLFCAHYARPRAVYAVEASEMAQHTGQLVLQNGFADIITVYQQKVEDVVLPEKVDVLVSEWMGTCLL
notes: Expressed by transfection in 293 cells; not shown: HA tag at the C-terminus

binding result [2]: no binding | binding result (RelA (p65) in 293 cells): no binding
B2: HA-tagged PRMT2-N (first 95 amino acids of PRMT2) (enzyme)
chain: MATSGDCPRSESQGEEPAECSEAGLLQEGVQPEEFVAIADYAATDETQLSFLRGEKILILRQTTADWWWGERAGCCGYIPANHVGKHVDEYDPED
notes: as for B1
